T1: RBM10 RRM1-ZnF (Homo sapiens) (UniProt P98175)
T1 sequence: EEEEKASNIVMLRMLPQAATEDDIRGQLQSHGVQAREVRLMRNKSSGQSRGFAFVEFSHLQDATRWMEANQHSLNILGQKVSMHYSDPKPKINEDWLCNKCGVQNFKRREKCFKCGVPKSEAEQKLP

T2: RBM10 RRM1-ZnF-RRM2 (Homo sapiens) (UniProt P98175)
T2 sequence: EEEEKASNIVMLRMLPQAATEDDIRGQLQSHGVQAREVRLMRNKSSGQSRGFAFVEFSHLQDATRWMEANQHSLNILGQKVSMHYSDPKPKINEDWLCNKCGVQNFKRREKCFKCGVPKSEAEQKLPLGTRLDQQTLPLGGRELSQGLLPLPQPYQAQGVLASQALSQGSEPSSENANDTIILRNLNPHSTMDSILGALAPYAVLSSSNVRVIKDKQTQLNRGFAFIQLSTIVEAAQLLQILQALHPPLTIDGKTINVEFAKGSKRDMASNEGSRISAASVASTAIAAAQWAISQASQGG

T3: RBM10 RRM1-ZnF (Homo sapiens, UniProt P98175 129-242)
T3 sequence: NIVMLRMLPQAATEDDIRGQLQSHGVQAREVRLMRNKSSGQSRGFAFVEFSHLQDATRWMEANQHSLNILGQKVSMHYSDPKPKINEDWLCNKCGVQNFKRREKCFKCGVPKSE

T4: RBM10 RRM2 (Homo sapiens, UniProt P98175 300-384)
T4 sequence: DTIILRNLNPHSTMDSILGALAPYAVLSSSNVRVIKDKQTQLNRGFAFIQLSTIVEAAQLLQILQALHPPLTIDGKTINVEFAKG

T5: RBM10 RRM1-ZnF-RRM2 (Homo sapiens, UniProt P98175 129-384)
T5 sequence: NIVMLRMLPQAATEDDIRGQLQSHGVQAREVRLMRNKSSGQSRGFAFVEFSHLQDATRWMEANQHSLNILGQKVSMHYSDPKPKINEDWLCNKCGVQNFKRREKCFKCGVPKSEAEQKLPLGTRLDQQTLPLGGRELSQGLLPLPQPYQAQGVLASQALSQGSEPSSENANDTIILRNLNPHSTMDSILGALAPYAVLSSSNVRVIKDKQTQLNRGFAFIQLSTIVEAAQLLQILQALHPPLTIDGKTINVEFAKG

B1: CUAUGGA (ssRNA)
RNA: CUAUGGA
B2: CCCAC (ssRNA)
RNA: CCCAC
B3: CUGAGGA (ssRNA)
RNA: CUGAGGA
B4: CUGUGGA (ssRNA)
RNA: CUGUGGA
B5: CUGUGGU (ssRNA)
RNA: CUGUGGU
B6: UAAUA (ssRNA)
RNA: UAAUA
B7: CAGUGGA (ssRNA)
RNA: CAGUGGA
B8: UGUGGA (ssRNA)
RNA: UGUGGA

Key:
[1] = target: T1, RBM10 RRM1-ZnF (Homo sapiens); assay: pulldown; conditions: 20 nM protein; 20 mM Hepes pH 7.8, 80 mM KCl, 20 mM NaCl, 10% glycerol, 2 mM DTT; 4 C
[2] = target: T2, RBM10 RRM1-ZnF-RRM2 (Homo sapiens); assay: pulldown; conditions: 20 nM protein; 20 mM Hepes pH 7.8, 80 mM KCl, 20 mM NaCl, 10% glycerol, 2 mM DTT; 4 C
RBM10 RRM1-ZnF [3] = target: T3, RBM10 RRM1-ZnF; assay: ITC; 10 uM ZnCl2; 10 mM sodium phosphate pH 6.9, 50 mM NaCl, 1 mM TCEP (+10 uM ZnCl2 for ZnF constructs); ITC 25 C; NMR 298 or 310 K; conditions: protein: recombinant; tags: His6 or His6-SUMO3, cleaved with HRV 3C
RBM10 RRM2 = target: T4, RBM10 RRM2; assay: ITC; 10 mM sodium phosphate pH 6.9, 50 mM NaCl, 1 mM TCEP (+10 uM ZnCl2 for ZnF constructs); ITC 25 C; NMR 298 or 310 K; conditions: protein: recombinant; tags: His6 or His6-SUMO3, cleaved with HRV 3C
RBM10 RRM1-ZnF [4] = target: T3, RBM10 RRM1-ZnF; assay: ITC; 10 uM ZnCl2; 10 mM sodium phosphate pH 6.9, 50 mM NaCl, 1 mM TCEP (+10 uM ZnCl2 for ZnF constructs); ITC 25 C; NMR 298 or 310 K; conditions: protein: recombinant; tags: His6 or His6-SUMO3, cleaved with HRV 3C; remark: listed apart in the source
RBM10 RRM1-ZnF-RRM2 = target: T5, RBM10 RRM1-ZnF-RRM2; assay: NMR; 10 uM ZnCl2; RRM1-ZnF slow exchange, Kd in nM range; RRM2 second weak event, Kd in uM range; 10 mM sodium phosphate pH 6.9, 50 mM NaCl, 1 mM TCEP (+10 uM ZnCl2 for ZnF constructs); ITC 25 C; NMR 298 or 310 K; conditions: protein: recombinant; tags: His6 or His6-SUMO3, cleaved with HRV 3C
RBM10 RRM1-ZnF [5] = target: T3, RBM10 RRM1-ZnF; assay: ITC; 10 uM ZnCl2; 10 mM sodium phosphate pH 6.9, 50 mM NaCl, 1 mM TCEP (+10 uM ZnCl2 for ZnF constructs); ITC 25 C; NMR 298 or 310 K; conditions: protein: recombinant; tags: His6 or His6-SUMO3, cleaved with HRV 3C; remark: listed apart in the source

Molecule	binding signal (RNAcompete z-score) [1]	binding signal (RNAcompete z-score) [2]	also measured
AAAGGGU [7-mer AAAGGGU]	5		
AAGGGUG [7-mer AAGGGUG]	5.25	5.29	
AGGGAAA [7-mer AGGGAAA]		4.87	
AGUAGGG [7-mer AGUAGGG]		4.88	
GAAAGGA [7-mer GAAAGGA]	5.87	5.67	
GAAAGGG [7-mer GAAAGGG]	6.04	5.54	
GAAAUGG [7-mer GAAAUGG]	5.03	4.79	
GAAGGGG [7-mer GAAGGGG]	5.25	4.83	
GAGUGGG [7-mer GAGUGGG]	4.99	4.9	
GGAAAGG [7-mer GGAAAGG]	6.53	6.43	
GGAAGGG [7-mer GGAAGGG]	6	5.56	
GGAUGGG [7-mer GGAUGGG]	5.66	4.83	
GGGAAGG [7-mer GGGAAGG]	5.91	5.54	
GGGAUGG [7-mer GGGAUGG]	5.71	5.12	
GGUAAGG [7-mer GGUAAGG]	4.97	4.92	
GGUAGGG [7-mer GGUAGGG]		4.79	
GGUGGGG [7-mer GGUGGGG]	5.21		
GGUUGGG [7-mer GGUUGGG]	5.27		
B1			binding signal (RBM10 RRM1-ZnF [3]): ~5 fold decrease in affinity vs CUGUGGA
B2			Kd (RBM10 RRM2): ~7 µM
B3			binding signal (RBM10 RRM1-ZnF [3]): < 2 fold decrease in affinity vs CUGUGGA
B4			binding result (RBM10 RRM1-ZnF [4]): binds; binding result (RBM10 RRM1-ZnF-RRM2): binds
B5			binding signal (RBM10 RRM1-ZnF [5]): ~3 fold decrease in affinity vs CUGUGGA
B6			binding result (RBM10 RRM2): no binding
B7			binding signal (RBM10 RRM1-ZnF [3]): < 2 fold decrease in affinity vs CUGUGGA
B8			binding signal (RBM10 RRM1-ZnF [3]): ~2 fold decrease in affinity vs CUGUGGA

Source: paper PMC5499739, “An RRM–ZnF RNA recognition module targets RBM10 to exonic sequences to promote exon exclusion”
